The text below walks through data of US9988424 (DUKE UNIVERSITY, dated 2018).

Test [1] concerns the target T1, A.9004SS V1V2 Tags.
T1 Env construct: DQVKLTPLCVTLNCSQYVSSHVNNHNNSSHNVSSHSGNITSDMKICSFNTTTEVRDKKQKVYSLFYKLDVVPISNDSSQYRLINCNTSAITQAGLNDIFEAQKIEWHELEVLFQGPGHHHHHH
The experiment in a line: ELISA, OD405. (In general: In an ELISA, binding on a coated surface is turned into a signal by an enzyme label.)

The target in test [2] is T2, AE.con gp140CF.
T2 construct: also called AE.con.env03 gp140CF
Description: ELISA, OD405.

Test [3] concerns the target B. 681-7 gp140C. The experiment in a line: ELISA, OD405.
In test [4] the target is B. 684-6 gp140C. The experiment in a line: ELISA, OD405.
The target of test [5] is T3, B.62357 140C.
T3 construct: also called B.62357 gp140C
Description: ELISA, OD405.

The target of test [6] is B.63521 gp140C. The experiment in a line: ELISA, OD405.
The target in test [7] is T4, B.63521_V1V2 Tags.
T4 Env construct: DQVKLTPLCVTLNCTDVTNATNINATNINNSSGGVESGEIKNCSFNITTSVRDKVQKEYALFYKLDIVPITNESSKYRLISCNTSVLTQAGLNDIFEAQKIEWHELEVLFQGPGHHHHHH
The experiment in a line: ELISA, OD405.

In test [8] the target is T5, B.Case A2 V1/V2 Tags.
T5 Env construct: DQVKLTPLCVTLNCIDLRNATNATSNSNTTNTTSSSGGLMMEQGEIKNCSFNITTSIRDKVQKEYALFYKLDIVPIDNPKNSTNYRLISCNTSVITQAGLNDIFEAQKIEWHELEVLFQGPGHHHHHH
Description: ELISA, OD405.

The target of test [9] is T6, B.con gp140CF.
T6 construct: also called B.con.env03 gp140CF
The experiment in a line: ELISA, OD405.

For test [10], the target named is T7, C.1086 gp140.
T7 construct: also called C.1086gp140C
The experiment in a line: ELISA, OD405.

The target of test [11] is Con 6 gp120. The experiment in a line: ELISA, OD405.
Test [12] has as its target T8, D.9009SA V1V2 Tags.
T8 Env construct: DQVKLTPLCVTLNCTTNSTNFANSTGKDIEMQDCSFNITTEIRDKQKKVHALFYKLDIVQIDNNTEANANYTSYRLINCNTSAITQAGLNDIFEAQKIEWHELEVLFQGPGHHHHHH
Description: ELISA, OD405.

For test [13], the target named is T9, G.con gp140CF.
T9 construct: also called G.con.env03 gp140CF
The experiment in a line: ELISA, OD405.

The target in test [14] is T2, AE.con gp140CF. The experiment in a line: ELISA, OD405. The source holds these as a separate data set.
Test [15] addresses B. 681-7 gp140C. Description: ELISA, OD405. The source holds these as a separate data set.
The target in test [16] is B. 684-6 gp140C. The experiment in a line: ELISA, OD405. The source holds these as a separate data set.
Test [17] addresses B.040 gp140C. Description: ELISA, OD405.
In test [18] the target is T6, B.con gp140CF. Description: ELISA, OD405. The source holds these as a separate data set.
For test [19], the target named is Con 6 gp120. The experiment in a line: ELISA, OD405. The source holds these as a separate data set.
Test [20] concerns the target T1, A.9004SS V1V2 Tags. The experiment in a line: ELISA, OD405.
For test [21], the target named is T2, AE.con gp140CF. Description: ELISA, OD405. The source holds these as a separate data set.
For test [22], the target named is B. 681-7 gp140C. The experiment in a line: ELISA, OD405. The source holds these as a separate data set.
The target of test [23] is B. 684-6 gp140C. The experiment in a line: ELISA, OD405. The source holds these as a separate data set.
For test [24], the target named is B.040 gp140C. The experiment in a line: ELISA, OD405. The source holds these as a separate data set.
Test [25] concerns the target T3, B.62357 140C. Description: ELISA, OD405. This is another data set of the same source.
Test [26] concerns the target B.63521 gp140C. The experiment in a line: ELISA, OD405. The source holds these as a separate data set.
Test [27] has as its target T4, B.63521_V1V2 Tags. The experiment in a line: ELISA, OD405.
Test [28] deals with T5, B.Case A2 V1/V2 Tags. The experiment in a line: ELISA, OD405.
Test [29] deals with T6, B.con gp140CF. Description: ELISA, OD405. The source holds these as a separate data set.
In test [30] the target is Con 6 gp120. Description: ELISA, OD405. This is another data set of the same source.
For test [31], the target named is T8, D.9009SA V1V2 Tags. Description: ELISA, OD405.
Test [32] addresses T9, G.con gp140CF. The experiment in a line: ELISA, OD405. This is another data set of the same source.
Test [33] has as its target Env of AE.92TH023 virus (HIV-1). The experiment in a line: cell-based or functional assay.
In test [34] the target is Env of AE.CM244 virus (HIV-1). The experiment in a line: cell-based or functional assay.
Test [35] concerns the target Env of B.MN virus (HIV-1). Description: cell-based or functional assay.
Test [36] addresses Env of SHIV SF162P3 (SHIV). Description: cell-based or functional assay.
Test [37] has as its target Env of SHIV-SF162P4 (SHIV). Description: cell-based or functional assay.
The target of test [38] is Env of SHIV-BaL (SHIV). Description: cell-based or functional assay.
Test [39] concerns the target Env of SHIV-1157ipEL-p (SHIV). The experiment in a line: cell-based or functional assay.
Test [40] concerns the target Env of SHIV-1157ipd3N4 (SHIV). The experiment in a line: cell-based or functional assay.

Where two headings read alike, the source gives them in different places.

B1: 697D reverted unmutated ancestor antibody (antibody, V domains shown)
VH: QVQLVQSGAEVKKPGSSVKVSCKASGGTFSSYTISWVRQAPGQGLEWMGRIIPILGIANYAQKFQGRVTITADKSTSTAYMELSSLRSEDTAVYYCATSGVGLHFGYFDYWGQGTLVTVSS
VL: QSVLTQPPSVSGAPGQRVTISCTGSSSNIGAGYDVHWYQQLPGTAPKLLIYGNSNRPSGVPDRFSGSKSGTSASLAITGLQAEDEADYYCQSYDSSLSGYVFGTGTKVTVL
notes: also called 697D RUA
Consider B1, for which the binding result in test [1], in test [2], in test [3], in test [4], in test [5] and in [6] was “no binding (tested: 10 ug/ml)” throughout. Also, the binding result in test [7], in test [8], in [9], in [10], in test [11] and in [12] was “no binding (tested: 10 ug/ml)” throughout. Further, in [13], the binding result is listed as “no binding (tested: 10 ug/ml)”.

B2: CH58 reverted unmutated ancestor antibody (antibody, V domains shown)
VH: EVQLVQSGAEVKKPGESLKISCKGSGYSFTSYWIGWVRQMPGKGLEWMGIIYPGDSDTRYSPSFQGQVTISADKSISTAYLQWSSLKASDTAMYYCARLGGRYYYDSSGYYYFDYWGQGTLVTVSS
VL: NFMLTQPHSVSESPGKTVTISCTRSSGSIASNYVQWYQQRPGSSPTTVIYEDNQRPSGVPDRFSGSIDSSSNSASLTISGLKTEDEADYYCQSYDSSSWVFGGGTKLTVL
notes: also called CH58 RUA; CH58_RUA
As for B2, the binding result in test [14], in test [15], in [16], in [17], in [18] and in test [19] was “no binding (tested: 10 ug/ml)” throughout.

B3: PG9 reverted unmutated ancestor antibody (antibody, V domains shown)
VH: QVQLVESGGGVVQPGRSLRLSCAASGFTFSSYGMHWVRQAPGKGLEWVAVISYDGSNKYYADSVKGRFTISRDNSKNTLYLQMNSLRAEDTAVYYCAREAGGPDYRNGYNYYDFWSGYYNYYYMDVWGKGTTVTVSS
VL: QSALTQPASVSGSPGQSITISCTGTSSDVGSYNLVSWYQQHPGKAPKLMIYEVSKRPSGVSNRFSGSKSGNTASLTISGLQAEDEADYYCCSLTSTRRWVFGGGTKLTVL
notes: also called PG9 RUA; PG9_RUA
Consider B3, for which the binding result in test [20], in test [21], in test [22], in [23], in [24] and in [25] was “no binding (tested: 10 ug/ml)” throughout. Besides, the binding result in [26], in [27], in test [28], in test [29], in test [30] and in test [31] was “no binding (tested: 10 ug/ml)” throughout. For the same molecule, the binding result in [32] is “no binding (tested: 10 ug/ml)”.

B4: CH59 (antibody, V domains shown)
VH: EVQLVESGGGLVQPGRSLRLSCAASGFTFDDGAMHWVRQAPGKGLEWVSGISWNSNIIAYADSVKGRFTISRDNAKNSLYLEMNSLRVEDTALYYCAKDSPRGELPLNYWGQGTLVTVSS
VL: SYELTQPPSVSVSPGQTARITCSGDALPKNYAYWYQQKSGQAPVLVIYEDSKRPSGIPERFSGSSSGTMATLTISGAQVEDEADYYCYSTDSSGNHRVFGGGTKLTVL
notes: also called mAb CH59
As to B4, the “EC50, neutralization of AE.TH023” value in test [33] was 12.1 µg/mL. Moreover, the “EC50, neutralization of AE.CM244” value in test [34] was over 50 µg/mL. For the same molecule, in [35], the “EC50, neutralization of B.MN” value was over 50 µg/mL. In test [36], the “EC50, neutralization of SHIV SF162P3” value is over 50 µg/mL. Moreover, in [37], the “EC50, neutralization of SHIV-SF162P4” value was over 50 µg/mL. The “EC50, neutralization of SHIV-BaL” value in test [38] was over 50 µg/mL. Further, in [39], the “EC50, neutralization of SHIV-1157ipEL-p” value is 24.6 µg/mL. In [40], the “EC50, neutralization of SHIV-1157ipd3N4” value is over 50 µg/mL.
